We go through four molecules from article PMC5510750 (Immunity, 2017).

The labels stand for the following.
B2: IL-10Rβ, monomeric soluble receptor (receptor)
chain: MVPPPENVRMNSVNFKNILQWESPAFAKGNLTFTAQYLSYRIFQDKCMNTTLTECDFSSLSKYGDHTLRVRAEFADEHSDWVNITFCPVDDTIIGPPGMQVEVLADSLHMRFLAPKIENEYETWTMKNVYNSWTYNVQYWKNGTDEKFQITPQYDFEVLRNLEPWTTYCVQVRGFLPDRNKAGEWSEPVCEQTTHDETVPS
modifications: Alexa 647 label (in the yeast staining)
B3: H11/IFN-λR1 binary complex (complex)
chain 1: GSARGCHIAQFKSLSPRELQAFKRAKDALEESLLLKDCKCRSRLFPRTWDLRQLQVRERPVALEAELALTLKVLDATADTDPALGDVLDQPLHTLHHILSQLRACIQPQPTAGPRTRGRLHRWLHRLQEAPKKESPGCLEASVTFNLFRLLARDLNCVASGDLCEAAAHHHHHHHH
chain 2: RPRLAPPQNVTLLSQNFSVYLTWLPGLGNPQDVTYFVAYQSSPTRRRWREVEECAGTKELLCSMMCLKKQDLYNKFKGRVRTVSPSSKSPWVESEYLDYLFEVEPAPPVLVLTQTEEILSANATYQLPPCMPPLDLKYEVAFWKEGAGNKTLFPVTPHGQPVQITLQPAASEHHCLSARTIYTFSVPKYSKFSKPTCFLLEVPEAN

Holding throughout (assay): SPR
The target of assay [1] is T1, IFN-λR1, soluble recombinant receptor (UniProt Q8IU57 21-226).
T1 sequence: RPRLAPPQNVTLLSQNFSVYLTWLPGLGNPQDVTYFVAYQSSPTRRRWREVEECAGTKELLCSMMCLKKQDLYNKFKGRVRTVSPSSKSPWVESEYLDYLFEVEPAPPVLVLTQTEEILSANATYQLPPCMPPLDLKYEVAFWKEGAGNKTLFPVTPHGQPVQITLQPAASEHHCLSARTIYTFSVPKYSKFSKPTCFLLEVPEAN

The target in assay [2] is B3.
Assay [3] deals with B2.

B1: Wild-type IFN-λ3, recombinant (ligand)
chain: VPVARLRGALPDARGCHIAQFKSLSPQELQAFKRAKDALEESLLLKDCKCRSRLFPRTWDLRQLQVRERPVALEAELALTLKVLEATADTDPALGDVLDQPLHTLHHILSQLRACIQPQPTAGPRTRGRLHHWLHRLQEAPKKESPGCLEASVTFNLFRLLTRDLNCVASGDLCV
One may read the Kd as the equilibrium constant for the complex coming apart. For B1, the Kd in assay [1] was approximately 0.85 µM.
On to B2, for which the “fold increase in affinity against the wild-type IFN-λ3/IFN-λR1 binary complex” value in assay [2] amounted to 30 fold.
As for B3, the Kd in assay [3] turned out to be 0.56 µM.

B4: IFN-λ3 H11, recombinant (designed binder)
chain: GSARGCHIAQFKSLSPRELQAFKRAKDALEESLLLKDCKCRSRLFPRTWDLRQLQVRERPVALEAELALTLKVLDATADTDPALGDVLDQPLHTLHHILSQLRACIQPQPTAGPRTRGRLHRWLHRLQEAPKKESPGCLEASVTFNLFRLLARDLNCVASGDLCEAAAHHHHHHHH
Turning to B4, the Kd in assay [1] is approximately 0.15 µM.
